Laboratory results: patent publication US20090311265A1

Key:
[1] = molecular target: recombinant HA, subtype H7 (A/Netherlands/219/03 (H7N7)) (influenza A virus A/Netherlands/219/03 (H7N7)); experiment: ELISA, coated HA, IgG 5 µg/ml
[2] = molecular target: recombinant HA, subtype H1 (A/New Caledonia/20/99 (H1N1)) (influenza A virus A/New Caledonia/20/99 (H1N1)) (UniProt Q289M7); experiment: ELISA, coated HA, IgG 5 µg/ml
[3] = molecular target: recombinant HA, subtype H3 (A/Wyoming/3/2003(H3N2)) (influenza A virus A/Wyoming/3/2003 (H3N2)); experiment: ELISA, coated HA, IgG 5 µg/ml
[4] = molecular target: recombinant HA, subtype H5 (A/Vietnam/1203/2004 (H5N1)) (influenza A virus A/Vietnam/1203/2004 (H5N1)) (UniProt Q80A26); experiment: ELISA, coated HA, IgG 5 µg/ml
[5] = molecular target: recombinant HA, subtype H9 (A/Hong Kong/1073/99 (H9N2)) (influenza A virus A/Hong Kong/1073/99 (H9N2)); experiment: ELISA, coated HA, IgG 5 µg/ml
[6] = molecular target: full-length HA from isolate A/Vietnam/1194/2004 (H5N1TV) on PER.C6 cells (influenza A virus A/Vietnam/1194/2004 (H5N1)) (UniProt Q80A26); experiment: flow cytometry, transfected PER.C6 cells
[7] = molecular target: full-length HA from isolate A/Vietnam/1194/2004 (H5N1TV) on PER.C6 cells (influenza A virus A/Vietnam/1194/2004 (H5N1)) (UniProt Q80A26); experiment: flow cytometry, transfected PER.C6 cells, separate experiment

Q: Which OD 492 nm [1] does the source give for CR6261 (antibody) here?
A: 0.31 OD 492 nm

Q: For CR3014 (antibody), which OD 492 nm [2] is on record?
A: 0.08 OD 492 nm

Q: And the OD 492 nm [3]?
A: 0.07 OD 492 nm

Q: And the OD 492 nm [4]?
A: 0.09 OD 492 nm

Q: And the OD 492 nm [1]?
A: 0.17 OD 492 nm

Q: And the OD 492 nm [5]?
A: 0.16 OD 492 nm

Q: And the flow cytometry signal at 0.1 µg/ml [6]?
A: 6.21

Q: What about the flow cytometry signal at 1 µg/ml [6] of the same substance?
A: 10

Q: What about the flow cytometry signal at 10 µg/ml [6] of the same substance?
A: 13.1

Q: And the flow cytometry signal at 0.1 µg/ml [7]?
A: 10.5

Q: And the flow cytometry signal at 1 µg/ml [7]?
A: 7.95

Q: And the flow cytometry signal at 10 µg/ml [7]?
A: 9.15
